# B1: AtCKB1 (residues 95-287), untagged (domain or fragment, Arabidopsis thaliana, UniProt P40228 95-287, looked up)
# chain: DGEDTSWISWFCNLRGNEFFCEVDDDYIQDDFNLCGLSSLVPYYEYALDLILDVESSQGEMFTEEQNELIESAAEMLYGLIHARYILTSKGLAAMLDKYKNYDFGRCPRVYCCGQPCLPVGQSDLPRSSTVKIYCPKCEDIYYPRSKYQGNIDGAYFGTTFPHLFLMTYGHLKPAKATQNYVQRVFGFKLHKP
# Biological target: T1, AtCKA1 (residues 76-409) with C-terminal 6xHis tag (Arabidopsis thaliana, UniProt Q08467 76-409)
# T1 sequence (looked up): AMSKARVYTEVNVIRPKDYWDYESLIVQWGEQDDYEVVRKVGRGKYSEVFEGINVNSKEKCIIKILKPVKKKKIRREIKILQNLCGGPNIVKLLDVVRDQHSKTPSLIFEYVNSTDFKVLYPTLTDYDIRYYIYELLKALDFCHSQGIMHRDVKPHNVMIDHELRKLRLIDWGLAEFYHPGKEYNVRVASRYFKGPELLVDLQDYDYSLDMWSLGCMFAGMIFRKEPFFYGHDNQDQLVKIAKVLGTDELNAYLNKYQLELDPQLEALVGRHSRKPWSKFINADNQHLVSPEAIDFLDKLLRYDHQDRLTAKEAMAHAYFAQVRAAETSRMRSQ
# Assay: SEC-MALS
binder,measurement,value
B1,stoichiometry N,"1 β per α (2:2, α2β2)"
